Source: US20150175687A1

What was measured:
[1] = target: recombinant mature myostatin (human) (UniProt O14793); experiment: BIAcore, myostatin immobilized
[2] = target: recombinant mature myostatin (human) (UniProt O14793)

recombinant mature myostatin (human), sequence (O14793 267-375): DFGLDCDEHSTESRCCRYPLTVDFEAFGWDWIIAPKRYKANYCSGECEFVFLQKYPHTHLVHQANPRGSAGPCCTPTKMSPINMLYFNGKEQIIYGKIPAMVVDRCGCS

Kd [1]: 7 nM
IC50 (nM), myostatin-induced luciferase, C2C12 pMARE-luc [2]: 83 nM
B1: recombinant human activin receptor IIB/Fc chimera (Fc fusion)
chain: SGRGEAETRECIYYNANWELERTNQSGLERCEGEQDKRLHCYASWRNSSGTIELVKKGCWLDDFNCYDRQECVATEENPQVYFCCCEGNFCNERFTHLPEAGGPEVTYEPPPTAPT
